Measured values reported in US20260241018A1 (BIOCYTOGEN PHARMACEUTICALS BEIJING, published 2026).

Columns and labels:
[1] = molecular target: T1, dog 5T4 expressed on CHO-S cells (CHO-d5T4 cells) (dog); experiment: flow cytometry, CHO-d5T4 cells
T1 chain: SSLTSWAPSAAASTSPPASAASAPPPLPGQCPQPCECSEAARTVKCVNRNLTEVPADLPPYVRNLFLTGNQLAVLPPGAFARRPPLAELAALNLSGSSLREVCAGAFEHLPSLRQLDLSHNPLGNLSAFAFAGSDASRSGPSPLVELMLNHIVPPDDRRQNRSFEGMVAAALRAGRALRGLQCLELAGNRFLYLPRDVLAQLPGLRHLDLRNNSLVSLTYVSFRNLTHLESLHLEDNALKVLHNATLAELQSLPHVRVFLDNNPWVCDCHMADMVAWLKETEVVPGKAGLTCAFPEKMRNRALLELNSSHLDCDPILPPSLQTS
Method: (§1) CHO-h5T4 cells, CHO-m5T4 cells, CHO-fas5T4 cells or CHO-d5T4 cells were transferred to a 96-well plate at a density of 2×10⁵ cells/well respectively. The anti-5T4 antibodies were added to the 96-well plate, and incubated at 4° C. for 30 min. Then, the cells were incubated with the secondary antibody anti-hlgG-Fc-Alex Flour 647 (RL1-H) (Jackson ImmunoResearch Laboratories, Inc., Cat #: 109-606-170) at 4° C. in the dark for 15 minutes before flow cytometry analysis.

[2] = molecular target: T2, His-tagged 5T4 protein of human (h5T4, ACRO Biosystems Inc., Cat #: TPG-H52E5) (human, UniProt Q13641 32-355); experiment: SPR (Biacore 8K), antibody captured on Protein A chip, His-tagged 5T4 as analyte
T2 construct: Bought protein; not shown: His tag
T2 sequence (looked up): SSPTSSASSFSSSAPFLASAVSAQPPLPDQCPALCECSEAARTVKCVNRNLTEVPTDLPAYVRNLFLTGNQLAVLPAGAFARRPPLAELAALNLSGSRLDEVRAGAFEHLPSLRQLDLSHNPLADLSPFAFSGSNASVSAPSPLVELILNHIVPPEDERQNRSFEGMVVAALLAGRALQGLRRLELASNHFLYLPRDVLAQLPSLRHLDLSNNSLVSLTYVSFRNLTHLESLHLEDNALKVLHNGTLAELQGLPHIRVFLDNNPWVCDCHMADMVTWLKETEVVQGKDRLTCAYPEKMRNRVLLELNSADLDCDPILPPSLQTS
Method: (§2) Purified anti-5T4 antibodies were diluted to 2 μg/mL and then injected into the Biacore™ 8K biosensor at 10 μL/min for about 50 seconds to achieve a desired protein density (e.g., about 50 response units (RU)). His-tagged 5T4 protein at a concentration of 200 nM was then injected at 30 μL/min for 180 seconds. Dissociation was monitored for 400 seconds. The chip was regenerated after the last injection of each titration with Glycine (pH 2.0), 30 μL/min for 30 seconds. For ISO control, an antibody targeting an irrelevant target protein was used.
(§3) As a person of ordinary skill in the art would understand, the same method with appropriate adjustments for parameters (e.g., antibody concentration) was performed for each tested antibody.

[3] = molecular target: T3, His-tagged 5T4 protein of monkey (fas5T4, ACRO Biosystems Inc., Cat #: TPG-C52H3) (monkey, UniProt Q4R8Y9 35-355); experiment: as above
T3 construct: Bought protein
T3 sequence: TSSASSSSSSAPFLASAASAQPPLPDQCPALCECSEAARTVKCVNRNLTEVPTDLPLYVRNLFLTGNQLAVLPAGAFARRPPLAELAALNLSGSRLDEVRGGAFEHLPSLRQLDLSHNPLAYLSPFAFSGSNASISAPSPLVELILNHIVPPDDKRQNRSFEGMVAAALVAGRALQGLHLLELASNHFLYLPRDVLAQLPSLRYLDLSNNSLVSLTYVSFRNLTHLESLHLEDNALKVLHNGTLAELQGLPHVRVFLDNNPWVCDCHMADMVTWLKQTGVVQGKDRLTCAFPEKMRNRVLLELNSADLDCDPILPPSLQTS
Method: as §2, §3

h5T4-His protein [4] = molecular target: T4, h5T4-His protein (human, UniProt Q13641 32-355, limits assumed); experiment: epitope binding assay, h5T4-His captured; binder = analyte 2; competitor (analyte 1): 35B12
T4 construct: also called His-tagged human 5T4 protein; not shown: His tag
T4 sequence (looked up): T2 sequence (looked up)
Method: (§4) Epitope binding assays were performed using ForteBio Octet system to determine whether two anti-5T4 antibodies target the same or overlapping epitopes. 1×HBS-EP+buffer (10 mM 4-(2-hydroxyethyl)-1-piperazineethanesulfonic acid (HEPES), 150 mM NaCl, 3 mM ethylenediaminetetraacetic acid (EDTA) and 0.05% P20, pH7.4) diluted from HBS-EP+buffer (10×) was used as the running buffer throughout the experiment. About 50 RU of h5T4-His protein was captured at a flow rate of 10 μL/min, and 200 nM of the tested antibody was injected at a flow rate of 30 μL/min to bind the ligand. Another comparison antibody was injected under the same conditions to determine whether the binding of different antibodies interfered with each other. The binding time was 180 s for each antibody.
(§5) The binding value of each antibody was obtained using Data Analysis HT 12.0. To quantify the interference of one antibody binding to another, a binding ratio was calculated to compare each pair of antibodies. The binding ratio is defined as the binding value of the second antibody (analyte 2), divided by the binding value of the first antibody (analyte 1). […] In general, antibody pairs that interfere with each other have the same or overlapping epitopes.

h5T4-His protein [5] = molecular target: T4, h5T4-His protein; experiment: epitope binding assay, h5T4-His captured; binder = analyte 2; competitor (analyte 1): 32E3
Method: as §4, §5

[6] = molecular target: T5, monkey (Macaca fascicularis) 5T4 expressed on CHO-S cells (CHO-fas5T4 cells) (monkey (Macaca fascicularis), UniProt Q4R8Y9 35-355); experiment: flow cytometry, CHO-fas5T4 cells
T5 construct: also called monkey 5T4
T5 sequence: T3 sequence
Method: as §1

Percentage of Positive Cells [1]: 56.3%
Kd [2]: 368 nM
koff [2]: 0.0249 s⁻¹
kon [2]: 67700 M⁻¹ s⁻¹
Kd [3]: 70.1 nM
koff [3]: 12.3 s⁻¹
kon [3]: 1.75e+08 M⁻¹ s⁻¹
binding ratio (h5T4-His protein [4]): -0.02
binding ratio (h5T4-His protein [5]): 0.89
Percentage of Positive Cells [6]: 53.2%
B1: 32G1 (antibody, V domains shown)
VH: QVQLVQSGGGLVKPGGSLRLSCVASGFTFSDYYMNWVRQAPGKGLEWISYVGTESIYTYYADTVKGRFTISRDNAKNSLYLQMNSLRAEDTALYYCARARDYNLYGMDVWGQGTTVTVSS
VL: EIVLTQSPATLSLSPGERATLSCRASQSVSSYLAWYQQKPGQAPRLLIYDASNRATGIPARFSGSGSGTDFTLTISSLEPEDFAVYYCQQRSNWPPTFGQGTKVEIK
notes: also called anti-5T4 antibody 32G1
